Test results as given in the RNAGym collection of RNA variant scans (doi:10.1073/pnas.2313332121).

B1: TPR t1 (parent)
chain: GACCAAUCUGCCCUCAGAGCUCGAGAACAUCUUCGGAUGCAGAGGAGGCAGGCUUCGGUGGCGCGAUAGCGCCAACGUCCUCAACCUCCAAUGCAUCCCACCACAUGAUGAUGCCUGAAGAGCCUUGGUUUUUUG

Variants of: B1
Assay: polymerase ribozyme fitness, log enrichment relative to wild type (log ratio); higher = more active; in vitro selection for triplet polymerase activity
Outline: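 Mutant libraries for each subunit of a heterodimeric triplet polymerase ribozyme were made by PCR and then transcribed. Each library underwent one round of in vitro selection in triplicate: annealing with a biotinylated primer, the partner subunit and triplets, frozen incubation at −7 °C, gel excision of extended constructs, streptavidin-bead capture and RT-PCR. Input and output libraries were Illumina-sequenced, and only genotypes with ≥10 input reads and ≥1 read per output were kept. Fitness is the logarithm, base 2, of genotype enrichment over wild-type enrichment, computed from inverse-variance-weighted replicate averages.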
With A6C U78A C94G U106G the “polymerase ribozyme fitness (log ratio)” value was -3.64. For A6C U38A A43U, the “polymerase ribozyme fitness (log ratio)” value was -3.16. In the case of A6C C88G C115G, the “polymerase ribozyme fitness (log ratio)” value is reported as -4.52. For A6U G63C C80A, the “polymerase ribozyme fitness (log ratio)” value was -3.25. With A5G G52C C70G C82U the “polymerase ribozyme fitness (log ratio)” value was -3.85. For A5U A29G A46G C82G G120A, the “polymerase ribozyme fitness (log ratio)” value was -1.34. With A6C C11G G36U C40G U106A U130A the “polymerase ribozyme fitness (log ratio)” value was -4.89. With A6C C22U C62U C79U C99U the “polymerase ribozyme fitness (log ratio)” value was -5.96. For A6C U54G C62U U92G, the “polymerase ribozyme fitness (log ratio)” value was -4.44. With A6G G69A C115A G120A the “polymerase ribozyme fitness (log ratio)” value was -1.22. For A5U G45U A46C, the “polymerase ribozyme fitness (log ratio)” value was -1.71. With A6U C11A C13G G47A G48A A74C A118G the “polymerase ribozyme fitness (log ratio)” value was -5.36. In the case of A6G C11G C12U C40G G44U G93A, the “polymerase ribozyme fitness (log ratio)” value is reported as -2.75. With A6U C8A G71C C115A U116A A121G U131A the “polymerase ribozyme fitness (log ratio)” value was -2.72. In the case of A6U C8G G44U C49A C72A G77U G120C U130G, the “polymerase ribozyme fitness (log ratio)” value is reported as -1.84. In the case of A6G A50C C70G, the “polymerase ribozyme fitness (log ratio)” value is reported as -3. For A6C C53G C72A C123U U133C, the “polymerase ribozyme fitness (log ratio)” value was 0.968. In the case of A6C G48A G71U C82A, the “polymerase ribozyme fitness (log ratio)” value is reported as -1. In the case of A6U C72U C76G C98U, the “polymerase ribozyme fitness (log ratio)” value is reported as -1.11. With A6C C62G the “polymerase ribozyme fitness (log ratio)” value was -2.28. For A6G G19A A43U C123A G128A, the “polymerase ribozyme fitness (log ratio)” value was -5.55. In the case of A6G G10U A43C G71A, the “polymerase ribozyme fitness (log ratio)” value is reported as -4.79. In the case of A6C C11U G69A A91C, the “polymerase ribozyme fitness (log ratio)” value is reported as -6.12. With A5U U131A the “polymerase ribozyme fitness (log ratio)” value was -2.48. For A5U C102U G122A, the “polymerase ribozyme fitness (log ratio)” value was -3.47. In the case of A6C C53U A74G C80U A118G, the “polymerase ribozyme fitness (log ratio)” value is reported as -1.6. With A6G C11U A29G G52A C76A C85A U125G the “polymerase ribozyme fitness (log ratio)” value was -5.55. For A6U A29U G61A C115G G117U, the “polymerase ribozyme fitness (log ratio)” value was -4.58. In the case of A6U C70A A91G, the “polymerase ribozyme fitness (log ratio)” value is reported as -2.94. With A5U G51A G113A C124A the “polymerase ribozyme fitness (log ratio)” value was -3.34. With A5U C13G A75C C76A the “polymerase ribozyme fitness (log ratio)” value was -1.8. With A6C C114U the “polymerase ribozyme fitness (log ratio)” value was -2.3. For A5U G69C, the “polymerase ribozyme fitness (log ratio)” value was -2.22. In the case of A6C G36A A66G C72G C76U U78A, the “polymerase ribozyme fitness (log ratio)” value is reported as -4.1. For A6G G10A C11U G61A A100U G128A, the “polymerase ribozyme fitness (log ratio)” value was -2.69. For A6U C62A, the “polymerase ribozyme fitness (log ratio)” value was -1.01. With A5U G110A the “polymerase ribozyme fitness (log ratio)” value was -1. In the case of A5U C13G C72A C73U U106C, the “polymerase ribozyme fitness (log ratio)” value is reported as -3.49. For A6C G35U A83U C98G A121U, the “polymerase ribozyme fitness (log ratio)” value was -4.12. In the case of A6U C40A C56G A84G C104U, the “polymerase ribozyme fitness (log ratio)” value is reported as -2.66. With A5U G17C A18U C20U A46C U59A A121G G127C the “polymerase ribozyme fitness (log ratio)” value was -5.48. For A5U U9A, the “polymerase ribozyme fitness (log ratio)” value was -0.246. For A6G A18G U129A U133A G135U, the “polymerase ribozyme fitness (log ratio)” value was -5.44. For A6U A18G G93A, the “polymerase ribozyme fitness (log ratio)” value was -5.43. For A6U G48A A91C C114A, the “polymerase ribozyme fitness (log ratio)” value was -2.36. In the case of A5U C85A C88U A100U A111G, the “polymerase ribozyme fitness (log ratio)” value is reported as -2.1. In the case of A6U C49G C62A U78C C88A A119U, the “polymerase ribozyme fitness (log ratio)” value is reported as -3.67. In the case of A5U C13U U21C C88U G120U, the “polymerase ribozyme fitness (log ratio)” value is reported as -0.379. With A6U the “polymerase ribozyme fitness (log ratio)” value was 0.173. For A6C, the “polymerase ribozyme fitness (log ratio)” value was -0.236. With A6G the “polymerase ribozyme fitness (log ratio)” value was 0.335. In the case of A6C U7G C22G G58U A95G C104A G120C, the “polymerase ribozyme fitness (log ratio)” value is reported as -3.33. For A6C C76G U81C C85U C99U, the “polymerase ribozyme fitness (log ratio)” value was -5.11. For A6U C12A G61A U78A C80U C86A G120A, the “polymerase ribozyme fitness (log ratio)” value was -2.58. In the case of A5U A18U C88U, the “polymerase ribozyme fitness (log ratio)” value is reported as -2.74. For A6C U131A, the “polymerase ribozyme fitness (log ratio)” value was -0.317. With A6C A16U C70U C104A the “polymerase ribozyme fitness (log ratio)” value was -4.73. In the case of A6U C15A G51C G71U C124U, the “polymerase ribozyme fitness (log ratio)” value is reported as -5.41. For A5U G57A G63U U78C A95C C115A, the “polymerase ribozyme fitness (log ratio)” value was -3.19. With A6U C40G G42C C76A C94U U112C G122A the “polymerase ribozyme fitness (log ratio)” value was -2.22. In the case of A6U C49U G60U C94G G113A, the “polymerase ribozyme fitness (log ratio)” value is reported as -2.65. For A6C U7G A29G G48C G61A A95C, the “polymerase ribozyme fitness (log ratio)” value was -2.21. For A5U A6C G63U, the “polymerase ribozyme fitness (log ratio)” value was -1.11. With A6U C56G G110U the “polymerase ribozyme fitness (log ratio)” value was -1.25. In the case of A6C C12U A46G A118G, the “polymerase ribozyme fitness (log ratio)” value is reported as 0.142. For A5G G47U C62A G71C, the “polymerase ribozyme fitness (log ratio)” value was -1.95. In the case of A5U C13G C53G A118U, the “polymerase ribozyme fitness (log ratio)” value is reported as -2.18. For A5G G48U G69A C89U C98U A121G, the “polymerase ribozyme fitness (log ratio)” value was -3.81. In the case of A5U C97G C115U G127A, the “polymerase ribozyme fitness (log ratio)” value is reported as -6.94. With A5U C104U U112A G120U the “polymerase ribozyme fitness (log ratio)” value was -0.575. With A6U C76G the “polymerase ribozyme fitness (log ratio)” value was -0.287. In the case of A5U G44C, the “polymerase ribozyme fitness (log ratio)” value is reported as -1.05. With A5U U55G A95U U129G the “polymerase ribozyme fitness (log ratio)” value was -1.03. For A6G A66U C73G A75U C80U G120U U129G, the “polymerase ribozyme fitness (log ratio)” value was -4.99. In the case of A5G G36U A46U G60U A91G U106A, the “polymerase ribozyme fitness (log ratio)” value is reported as -4.94. With A6C G10A U30C G71A the “polymerase ribozyme fitness (log ratio)” value was -5.5. In the case of A6G C8G G10U C76A G117C C124A, the “polymerase ribozyme fitness (log ratio)” value is reported as -2.05. In the case of A6G A46C C49A C53A U55C G127U, the “polymerase ribozyme fitness (log ratio)” value is reported as -3.07. With A6U A18U G93C C102U the “polymerase ribozyme fitness (log ratio)” value was -6.29. With A6G C12A G117A the “polymerase ribozyme fitness (log ratio)” value was -2.34. For A6U A26U G39A C49G G61A C88U C124G, the “polymerase ribozyme fitness (log ratio)” value was -3.73. For A6C C15U C70U C101A U130G, the “polymerase ribozyme fitness (log ratio)” value was -4.08. In the case of A6U C11G U112A U126A, the “polymerase ribozyme fitness (log ratio)” value is reported as 1.81. With A6G C12U the “polymerase ribozyme fitness (log ratio)” value was -0.282.
